We go through two molecules from patent US20150080242A1 (UNIVERSITY OF MASSACHUSETTS, published 2015).

Test [1] addresses OmpG-PEG2-biotin (Escherichia coli) (UniProt P76045). In words: single channel recording of one OmpG-PEG2-biotin pore in a planar lipid bilayer, dwell times of binding events.
Test [2] has the same target. In words: single channel recording of one OmpG-PEG2-biotin pore, from koff and kon.
For test [3] the target is unchanged. Nature of the test: cell-based or functional assay.
The target is the same in test [4]. In words: single channel recording of one OmpG-PEG2-biotin pore, inter-event intervals against mAb concentration.
Test [5] shares this target. In words: single channel recording of one OmpG-PEG2-biotin pore, 1 nM mAb.
The next test deals with T1, BSA (UniProt P02769 25-607).
T1 construct: Control protein
T1 sequence (P02769 25-607 limits assumed): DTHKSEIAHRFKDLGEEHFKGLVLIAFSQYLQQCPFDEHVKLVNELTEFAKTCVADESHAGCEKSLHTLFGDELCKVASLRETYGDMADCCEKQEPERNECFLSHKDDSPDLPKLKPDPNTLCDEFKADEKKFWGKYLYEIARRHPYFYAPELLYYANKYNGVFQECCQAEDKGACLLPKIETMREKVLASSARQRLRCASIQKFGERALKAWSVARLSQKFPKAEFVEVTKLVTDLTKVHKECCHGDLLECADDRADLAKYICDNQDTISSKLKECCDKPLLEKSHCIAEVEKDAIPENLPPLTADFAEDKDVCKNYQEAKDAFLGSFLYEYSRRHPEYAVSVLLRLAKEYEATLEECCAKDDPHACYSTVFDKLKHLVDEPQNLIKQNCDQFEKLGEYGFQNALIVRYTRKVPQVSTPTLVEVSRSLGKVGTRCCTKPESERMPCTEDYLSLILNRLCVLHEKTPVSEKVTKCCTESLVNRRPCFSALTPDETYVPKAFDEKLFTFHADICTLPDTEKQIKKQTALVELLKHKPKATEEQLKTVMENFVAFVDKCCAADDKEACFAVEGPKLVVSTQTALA
In words: single channel recording in planar lipid bilayer.

Turning to “Mouse anti-biotin monoclonal antibody (MS-1048-P1, Thermo Scientific)”, the koff (in general, the rate constant with which the complex falls apart) in test [1] worked out at 0.25 s⁻¹. The Kd – broadly, the free concentration of one partner at which half of the binding sites on the other are occupied at equilibrium, for simple one-to-one binding – in test [2] is 11.2 nM. In test [3], this molecule registered an Event frequency of 201 s⁻¹, a Gating duration of 4.2 s, an Inter-event duration of 3.67 s and an Open probability of 0.52. In test [3], this molecule registered a Relative conductance of open state (%) of 86.4% and an open probability of the mAb bound state at -50 mV of 0.4. For the same molecule, the kon (in general, a measure of how fast the partners come together) in test [4] is 2.3e+07 M⁻¹ s⁻¹. In test [5], the mean inter-event interval at 1 nM mAb was determined as 74.5 s.

B1: OmpG-PEG2-biotin (other)
chain: GEERNDWHFNIGAMYEIENVEGYGEDMDGLAEPSVYFNAANGPWRIALAYYQEGPVDYSAGKRGTWFDRPELEVHYQFLENDDFSFGLTGGFRNYGYHYVDEPGKDTANMQRWKIAPDWDVKLTDDLRFNGWLSMYKFANDLNTTGYADTRVETETGLQYTFNETVALRVNYYLERGFNMDDSRNNGEFSTQEIRAYLPLTLGNHSVTPYTRIGLDRWSNWDWQCDIEREGHDFNRVGLFYGYDFQNGLSVSLEYAFEWQDHDEGDSDKFHYAGVGVNYSF
modifications: maleimide-PEG2-biotin on Cys 224 (D224C, loop 6)
notes: also called OmpG-PEG2-Biotin pore; OmpG-biotin
On to B1, for which the binding result with BSA is “no binding (tested: 1 µM)”.
